Results from patent US20060046277.

Experiments:
[1] = tested on: GST-Z1-AMPK×3 [GST: P08515]
[2] = tested on: GST-Z2-AMPK×3 [GST: P08515]
[3] = tested on: AMPK kinase substrate (GST fusion, Table 2) [GST: P08515]
GST-Z2-Abl×1 = tested on: T1, GST-Z2-Abl×1
T1 sequence: AIYAAPF

[4] = tested on: EGFR kinase substrate (GST fusion, Table 2) [GST: P08515]
[5] = tested on: Abl kinase substrate (GST fusion, Table 2) [GST: P08515]
GST-Abl×1 = tested on: T2, GST-Abl×1
T2 sequence: AIYAAPF

[6] = tested on: CHK kinase substrate (GST fusion, Table 2) [GST: P08515]
[7] = tested on: Src kinase substrate (GST fusion, Table 2) [GST: P08515]
[8] = tested on: CK1 kinase substrate (GST fusion, Table 2) [GST: P08515]
[9] = tested on: IKK kinase substrate (GST fusion, Table 2) [GST: P08515]
[10] = tested on: dsDNAPK kinase substrate (GST fusion, Table 2) [GST: P08515]
[11] = tested on: CK2 kinase substrate (GST fusion, Table 2) [GST: P08515]
[12] = tested on: ERK kinase substrate (GST fusion, Table 2) [GST: P08515]
[13] = tested on: JNK3 kinase substrate (GST fusion, Table 2) [GST: P08515]
[14] = tested on: PKA kinase substrate (GST fusion, Table 2) [GST: P08515]
[15] = tested on: GST-Z2-Src×2 [GST: P08515]
[16] = tested on: GST-dsDNA×3 [GST: P08515]
[17] = tested on: GST-Z1-dsDNA×4 [GST: P08515]
[18] = tested on: GST-dsDNA×4 [GST: P08515]
[19] = tested on: GST-dsDNA×2 [GST: P08515]
GST-dsDNA×1 = tested on: T3, GST-dsDNA×1
T3 sequence: GGGEETQTQDQPMEEEEV

JNK3, sequence (P53779 whole entry): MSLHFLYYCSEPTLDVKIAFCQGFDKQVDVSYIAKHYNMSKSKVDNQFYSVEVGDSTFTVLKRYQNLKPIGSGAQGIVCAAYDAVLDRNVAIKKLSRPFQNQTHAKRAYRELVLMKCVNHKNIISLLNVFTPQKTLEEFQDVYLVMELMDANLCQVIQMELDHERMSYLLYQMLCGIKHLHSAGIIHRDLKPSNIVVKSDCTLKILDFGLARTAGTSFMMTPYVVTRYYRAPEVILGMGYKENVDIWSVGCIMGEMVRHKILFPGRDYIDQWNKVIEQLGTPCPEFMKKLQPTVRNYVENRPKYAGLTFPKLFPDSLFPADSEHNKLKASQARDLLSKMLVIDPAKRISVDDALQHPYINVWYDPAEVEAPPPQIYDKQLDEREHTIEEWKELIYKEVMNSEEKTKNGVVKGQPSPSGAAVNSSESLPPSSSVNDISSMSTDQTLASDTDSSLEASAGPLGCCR

## AMPK
[1]
  phosphorylation of the substrate on beads (32P-ATP, SDS-PAGE, autoradiogram; FIG. 6): All of the protein kinase substrates reacted with their corresponding kinases
[2]
  phosphorylation of the substrate on beads (32P-ATP, SDS-PAGE, autoradiogram; FIG. 6): All of the protein kinase substrates reacted with their corresponding kinases
[3]
  Reactivity for each of the Kinase Substrates (32P phosphorylation, autoradiogram): +++++

## Abl
GST-Z2-Abl×1
  phosphorylation of the substrate on beads (32P-ATP, SDS-PAGE, autoradiogram; FIG. 6): All of the protein kinase substrates reacted with their corresponding kinases
[4]
  Reactivity for each of the Kinase Substrates (32P phosphorylation, autoradiogram): +++++
[5]
  Reactivity for each of the Kinase Substrates (32P phosphorylation, autoradiogram): +++++
GST-Abl×1
  phosphorylation of the substrate on beads (32P-ATP, SDS-PAGE, autoradiogram; FIG. 6): All of the protein kinase substrates reacted with their corresponding kinases
[3]
  Reactivity for each of the Kinase Substrates (32P phosphorylation, autoradiogram): +++

## CHK
GST-CHK×5 [GST: P08515]
  phosphorylation of the substrate on beads (32P-ATP, SDS-PAGE, autoradiogram; FIG. 6): All of the protein kinase substrates reacted with their corresponding kinases
[6]
  Reactivity for each of the Kinase Substrates (32P phosphorylation, autoradiogram): +++++

## CK1
[7]
  Reactivity for each of the Kinase Substrates (32P phosphorylation, autoradiogram): +++++
GST-CK1×4 [GST: P08515]
  phosphorylation of the substrate on beads (32P-ATP, SDS-PAGE, autoradiogram; FIG. 6): All of the protein kinase substrates reacted with their corresponding kinases
[8]
  Reactivity for each of the Kinase Substrates (32P phosphorylation, autoradiogram): +++++
[9]
  Reactivity for each of the Kinase Substrates (32P phosphorylation, autoradiogram): +
[10]
  Reactivity for each of the Kinase Substrates (32P phosphorylation, autoradiogram): +++++

## CK2
[11]
  Reactivity for each of the Kinase Substrates (32P phosphorylation, autoradiogram): +++++
GST-CK2×4 [GST: P08515]
  phosphorylation of the substrate on beads (32P-ATP, SDS-PAGE, autoradiogram; FIG. 6): All of the protein kinase substrates reacted with their corresponding kinases
[9]
  Reactivity for each of the Kinase Substrates (32P phosphorylation, autoradiogram): +

## EGFR
[4]
  Reactivity for each of the Kinase Substrates (32P phosphorylation, autoradiogram): +++++
GST-EGFR×3 [GST: P08515]
  phosphorylation in the 4-member substrate ladder on beads (32P-ATP, SDS-PAGE, autoradiogram; FIG. 12): All of the protein kinase substrates reacted with their corresponding kinases, and cross-reactivity with other substrate was minimal
  phosphorylation of the substrate on beads (32P-ATP, SDS-PAGE, autoradiogram; FIG. 6): All of the protein kinase substrates reacted with their corresponding kinases
[5]
  Reactivity for each of the Kinase Substrates (32P phosphorylation, autoradiogram): +++++

## IKK
GST-IKK×7 [GST: P08515]
  phosphorylation in the 4-member substrate ladder on beads (32P-ATP, SDS-PAGE, autoradiogram; FIG. 12): All of the protein kinase substrates reacted with their corresponding kinases, and cross-reactivity with other substrate was minimal
  phosphorylation of the substrate on beads (32P-ATP, SDS-PAGE, autoradiogram; FIG. 6): All of the protein kinase substrates reacted with their corresponding kinases
GST-IKK×4 [GST: P08515]
  phosphorylation of the substrate on beads (32P-ATP, SDS-PAGE, autoradiogram; FIG. 6): All of the protein kinase substrates reacted with their corresponding kinases
[7]
  Reactivity for each of the Kinase Substrates (32P phosphorylation, autoradiogram): +
[8]
  Reactivity for each of the Kinase Substrates (32P phosphorylation, autoradiogram): +++++
[12]
  Reactivity for each of the Kinase Substrates (32P phosphorylation, autoradiogram): +
[9]
  Reactivity for each of the Kinase Substrates (32P phosphorylation, autoradiogram): +++++
[13]
  Reactivity for each of the Kinase Substrates (32P phosphorylation, autoradiogram): +

## JNK3
GST-JNK3×3 [GST: P08515]
  phosphorylation of the substrate on beads (32P-ATP, SDS-PAGE, autoradiogram; FIG. 6): All of the protein kinase substrates reacted with their corresponding kinases
[12]
  Reactivity for each of the Kinase Substrates (32P phosphorylation, autoradiogram): +
[13]
  Reactivity for each of the Kinase Substrates (32P phosphorylation, autoradiogram): +++++
GST-JNK3×8 [GST: P08515]
  phosphorylation in the 4-member substrate ladder on beads (32P-ATP, SDS-PAGE, autoradiogram; FIG. 12): All of the protein kinase substrates reacted with their corresponding kinases, and cross-reactivity with other substrate was minimal
  phosphorylation of the substrate on beads (32P-ATP, SDS-PAGE, autoradiogram; FIG. 6): All of the protein kinase substrates reacted with their corresponding kinases

## PKA
[14]
  Reactivity for each of the Kinase Substrates (32P phosphorylation, autoradiogram): +++++
[7]
  Reactivity for each of the Kinase Substrates (32P phosphorylation, autoradiogram): +++++
[10]
  Reactivity for each of the Kinase Substrates (32P phosphorylation, autoradiogram): +++++
GST-Z1-PKA [GST: P08515]
  phosphorylation of the substrate on beads (32P-ATP, SDS-PAGE, autoradiogram; FIG. 6): All of the protein kinase substrates reacted with their corresponding kinases

## Src
[7]
  Reactivity for each of the Kinase Substrates (32P phosphorylation, autoradiogram): +++++
[8]
  Reactivity for each of the Kinase Substrates (32P phosphorylation, autoradiogram): +++++
[5]
  Reactivity for each of the Kinase Substrates (32P phosphorylation, autoradiogram): +++++
[13]
  Reactivity for each of the Kinase Substrates (32P phosphorylation, autoradiogram): +
[15]
  phosphorylation in the 4-member substrate ladder on beads (32P-ATP, SDS-PAGE, autoradiogram; FIG. 12): All of the protein kinase substrates reacted with their corresponding kinases, and cross-reactivity with other substrate was minimal
  phosphorylation of the substrate on beads (32P-ATP, SDS-PAGE, autoradiogram; FIG. 6): All of the protein kinase substrates reacted with their corresponding kinases
[3]
  Reactivity for each of the Kinase Substrates (32P phosphorylation, autoradiogram): +++

## dsDNA (DNAPK)
[16]
  phosphorylation by dsDNA PK (32P ATP, SDS-PAGE, autoradiogram; FIG. 7): autoradiogram of phosphorylated GST-dsDNA kinase peptide substrate fusion proteins with different number of the peptide repeats
[14]
  Reactivity for each of the Kinase Substrates (32P phosphorylation, autoradiogram): +++++
[17]
  phosphorylation of the substrate on beads (32P-ATP, SDS-PAGE, autoradiogram; FIG. 6): All of the protein kinase substrates reacted with their corresponding kinases
[18]
  phosphorylation by dsDNA PK (32P ATP, SDS-PAGE, autoradiogram; FIG. 7): autoradiogram of phosphorylated GST-dsDNA kinase peptide substrate fusion proteins with different number of the peptide repeats
[19]
  phosphorylation by dsDNA PK (32P ATP, SDS-PAGE, autoradiogram; FIG. 7): autoradiogram of phosphorylated GST-dsDNA kinase peptide substrate fusion proteins with different number of the peptide repeats
GST-dsDNA×1
  phosphorylation by dsDNA PK (32P ATP, SDS-PAGE, autoradiogram; FIG. 7): autoradiogram of phosphorylated GST-dsDNA kinase peptide substrate fusion proteins with different number of the peptide repeats
[10]
  Reactivity for each of the Kinase Substrates (32P phosphorylation, autoradiogram): +++++
